Reference: article PMC4278678 (Biochemistry, 2014)

B1: FLAG-tagged 7xAla/L107C NEMO (natural protein, human, UniProt Q9Y6K9 1-419, looked up)
chain: MNRHLWKSQLAEMVQPSGGPAADQDVLGEESPLGKPAMLHLPSEQGAPETLQRALEENQELRDAIRQSNQILRERAEELLHFQASQREEKEFLMAKFQEARKLVERCGLEKLDLKRQKEQALREVEHLKRAQQQMAEDKASVKAQVTSLLGELQESQSRLEAATKEAQALEGRARAASEQARQLESEREALQQQHSVQVDQLRMQGQSVEAALRMERQAASEEKRKLAQLQVAYHQLFQEYDNHIKSSVVGSERKRGMQLEDLKQQLQQAEEALVAKQEVIDKLKEEAEQHKIVMETVPVLKAQADIYKADFQAERQAREKLAEKKELLQEQLEQLQREYSKLKASAQESARIEDMRKRHVEVSQAPLPPAPAYLSSPLALPSQRRSPPEEPPDFCCPKCQYQAPDMDTLQIHVMECIE
B2: 9xHis-SUMO-NEMO(44–111)(des3C/L107C), covalent dimer (domain or fragment, human, UniProt Q9Y6K9 44-111, looked up)
chain: {9xHis‑SUMO}-EQGAPETLQRALEENQELRDAIRQSNQILRERAEELLHFQASQREEKEFLMAKFQEARKLVERCGLEK
modifications: also: covalent dimer via interchain disulfide at Cys107
B3: 9xHis-SUMO-NEMO(44–111)(des2C/C54/L107C), covalent dimer (domain or fragment, human, UniProt Q9Y6K9 44-111, looked up)
chain: {9xHis‑SUMO}-EQGAPETLQRCLEENQELRDAIRQSNQILRERAEELLHFQASQREEKEFLMAKFQEARKLVERCGLEK
modifications: also: covalent dimer via interchain disulfides at Cys54 and Cys107
B4: 9xHis-SUMO-NEMO(1–120)(des3C/C54), oxidised covalent dimer (domain or fragment, human, UniProt Q9Y6K9 1-120, looked up)
chain: MNRHLWKSQLAEMVQPSGGPAADQDVLGEESPLGKPAMLHLPSEQGAPETLQRCLEENQELRDAIRQSNQILRERAEELLHFQASQREEKEFLMAKFQEARKLVERLGLEKLDLKRQKEQ
modifications: interchain disulfide bond at Cys54
B5: 9xHis-SUMO-NEMO(1–120)(des3C/C54/L107C), covalent dimer (domain or fragment, human, UniProt Q9Y6K9 1-120, looked up)
chain: MNRHLWKSQLAEMVQPSGGPAADQDVLGEESPLGKPAMLHLPSEQGAPETLQRCLEENQELRDAIRQSNQILRERAEELLHFQASQREEKEFLMAKFQEARKLVERCGLEKLDLKRQKEQ
modifications: interchain disulfide bonds at Cys54 and Cys107
B6: 9xHis-SUMO-NEMO(1–120)(des4C/L107C), covalent dimer (domain or fragment, human, UniProt Q9Y6K9 1-120, looked up)
chain: MNRHLWKSQLAEMVQPSGGPAADQDVLGEESPLGKPAMLHLPSEQGAPETLQRALEENQELRDAIRQSNQILRERAEELLHFQASQREEKEFLMAKFQEARKLVERCGLEKLDLKRQKEQ
modifications: interchain disulfide bond at Cys107
B7: 9xHis-SUMO-NEMO(44–111)(des2C/C54), covalent dimer (domain or fragment, human, UniProt Q9Y6K9 44-111, looked up)
chain: {9xHis‑SUMO}-EQGAPETLQRCLEENQELRDAIRQSNQILRERAEELLHFQASQREEKEFLMAKFQEARKLVERLGLEK
modifications: also: covalent dimer via interchain disulfide at Cys54

Target: the molecule itself
Assay: cross-linking

Stoichiometry N, 2:
B1

Target: the molecule itself
Assay: cross-linking
Remark: another data set of the same source

Stoichiometry N, 2:
B2, B3, B4, B5, B6, B7
